In one data set the test system is MBP-ERS I212T (human). The data set can be described thus: EMSA. The conditions noted are these: 1 mM Mg2+; 5 ug/mL heparin (unit prefix not given); none (in vitro transcript); 25 mM Tris-HCl pH 7.5, 50 mM NaCl, 1 mM MgCl2, 1 mM DTT, 5 ug/mL heparin (prefix not given), 10 nM 32P-tRNA, room temperature 30 min; native 4-16% gel on …. (A gel shift assay detects complexes by their altered migration in electrophoresis.)

The next data set relates to MBP-ERS M487V (human). The data set can be described thus: EMSA. The conditions noted are these: 1 mM Mg2+; 5 ug/mL heparin (unit prefix not given); none (in vitro transcript); 25 mM Tris-HCl pH 7.5, 50 mM NaCl, 1 mM MgCl2, 1 mM DTT, 5 ug/mL heparin (prefix not given), 10 nM 32P-tRNA, room temperature 30 min; native 4-16% gel on ….

This note sets out measurements from paper PMC9898101.

As a reminder, the Kd is the concentration at which binding is half-saturated. Turning to human tRNAGlu(TTC), the Kd in the data set with MBP-ERS I212T (human) stood at 2000 nM; with MBP-ERS M487V (human) it was 1200 nM.
